Laboratory results published in PMC11077872, “Sustainable production of multimeric and functional recombinant human adiponectin using genome-edited chickens” (Journal of Biological Engineering, 2024).
Where “and” joins values, the source holds several entries; their conditions need not be identical. Equal entries are not always repeated.

B1: recombinant human adiponectin (hADPN) from egg white of OVA ADPN knock-in genome-edited chickens (natural protein, UniProt Q15848 19-244, looked up)
chain: ETTTQGPGVLLPLPKGACTGWMAGIPGHPGHNGAPGRDGRDGTPGEKGEKGDPGLIGPKGDIGETGVPGAEGPRGFPGIQGRKGEPGEGAYVYRSAFSVGLETYVTIPNMPIRFTKIFYNQQNHYDGSTGKFHCNIPGLYYFAYHITVYMKDVKVSLFKKDKAMLFTYDQYQENNVDQASGSVLLHLEVGDQVWLQVYGEGERNGLYADNDNDSTFTGFLLYHDTN
notes: human adiponectin (ADPN), expressed from the chicken ovalbumin locus by knock-in; A mixture of hexamers and HMW multimers; also called EW-derived hADPN; EW-derived recombinant hADPN; source: egg white of OVA ADPN knock-in hens (G1-G4), diluted egg white; also purified from egg white (ammonium sulfate, HiTrap Q, Superdex 200 SEC)
B2: High-Five (Hi-5) cell-derived recombinant hADPN (natural protein, human, UniProt Q15848 19-244, looked up)
chain: B1 chain
notes: human adiponectin (ADPN); Mostly trimers, with hexamers and a weak monomer signal; also called Hi-5 cell hADPN; Hi-5 cell-derived commercial hADPN; source: bought: PeproTech (450-24), Hi-5 cells
B3: serum-derived commercial hADPN (natural protein, human, UniProt Q15848 19-244, looked up)
chain: B1 chain
notes: human adiponectin (ADPN), native protein from human serum; also called native serum-derived hADPN; human serum hADPN (positive control); source: bought: ProSpec (CYT-024), derived from human serum
B4: commercial recombinant hADPN derived from human embryonic kidney (HEK) 293 cells with a C-terminal FLAG tag (natural protein, UniProt Q15848 19-244, looked up)
chain: B1 chain
notes: human adiponectin (ADPN); Mixture of trimers, hexamers and HMW forms; also called HEK293 cell hADPN; HEK293 cell-derived commercial hADPN; source: bought: Biovendor R&D (RD172023100), HEK293 cells; not shown: FLAG, C-terminal, kept

Experiments:
[1] = target: the molecule itself; assay: non-reducing SDS-PAGE with western blot; egg white of hens of generations G1-G4 diluted 500 times, mixed with native sample buffer (non-reducing), SDS-PAGE, anti-ADPN blot; with beta-mercaptoethanol and 95 °C mostly monomer at 28 kDa and a weak trimer signal
[2] = target: the molecule itself; assay: non-reducing SDS-PAGE with western blot; 100 ng of purified or commercial hADPN, mixed with native sample buffer (non-reducing), SDS-PAGE, anti-ADPN blot; with beta-mercaptoethanol and 95 °C mostly monomer, some trimer

Protein	stoichiometry N [1]	stoichiometry N [2]
B1	6	–
B2	–	3 and 6
B3	–	6
B4	–	6 and 3
